T1: Fy-1 (Tbck) (human, UniProt Q8TEA7 1-893)
T1 sequence (looked up): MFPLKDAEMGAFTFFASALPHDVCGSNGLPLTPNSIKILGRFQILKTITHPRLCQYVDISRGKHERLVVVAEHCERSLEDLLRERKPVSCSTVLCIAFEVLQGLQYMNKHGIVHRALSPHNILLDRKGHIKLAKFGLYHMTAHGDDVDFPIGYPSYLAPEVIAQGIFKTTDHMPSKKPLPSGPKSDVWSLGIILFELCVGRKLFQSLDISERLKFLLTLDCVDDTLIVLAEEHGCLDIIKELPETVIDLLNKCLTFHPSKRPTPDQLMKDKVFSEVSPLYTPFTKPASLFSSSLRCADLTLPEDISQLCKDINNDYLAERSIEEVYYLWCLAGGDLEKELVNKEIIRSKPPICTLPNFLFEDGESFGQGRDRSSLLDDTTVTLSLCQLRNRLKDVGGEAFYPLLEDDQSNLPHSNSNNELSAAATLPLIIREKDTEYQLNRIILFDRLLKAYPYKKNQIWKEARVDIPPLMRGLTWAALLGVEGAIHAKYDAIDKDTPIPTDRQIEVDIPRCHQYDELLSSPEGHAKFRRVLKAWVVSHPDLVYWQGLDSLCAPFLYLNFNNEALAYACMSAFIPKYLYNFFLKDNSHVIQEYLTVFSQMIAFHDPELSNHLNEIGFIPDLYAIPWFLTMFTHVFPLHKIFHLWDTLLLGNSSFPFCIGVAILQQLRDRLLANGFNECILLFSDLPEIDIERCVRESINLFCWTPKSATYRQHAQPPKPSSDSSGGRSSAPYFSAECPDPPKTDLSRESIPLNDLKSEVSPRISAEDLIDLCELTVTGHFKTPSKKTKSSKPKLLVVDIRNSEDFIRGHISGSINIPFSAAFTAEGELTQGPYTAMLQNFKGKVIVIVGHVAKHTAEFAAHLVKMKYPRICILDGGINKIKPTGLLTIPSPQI

B1: Fy-5 (Gatd1) (natural protein, human, UniProt Q8NB37 1-220, looked up)
chain: MASERLPNRPACLLVASGAAEGVSAQSFLHCFTMASTAFNLQVATPGGKAMEFVDVTESNARWVQDFRLKAYASPAKLESIDGARYHALLIPSCPGALTDLASSGSLARILQHFHSESKPICAVGHGVAALCCATNEDRSWVFDSYSLTGPSVCELVRAPGFARLPLVVEDFVKDSGACFSASEPDAVHVVLDRHLVTGQNASSTVPAVQNLLFLCGSRK
B2: Fy-4 (Cryzl1) (natural protein, human, UniProt O95825 1-349, looked up)
chain: MKGLYFQQSSTDEEITFVFQEKEDLPVTEDNFVKLQVKACALSQINTKLLAEMKMKKDLFPVGREIAGIVLDVGSKVSFFQPDDEVVGILPLDSEDPGLCEVVRVHEHYLVHKPEKVTWTEAAGSIRDGVRAYTALHYLSHLSPGKSVLIMDGASAFGTIAIQLAHHRGAKVISTACSLEDKQCLERFRPPIARVIDVSNGKVHVAESCLEETGGLGVDIVLDAGVRLYSKDDEPAVKLQLLPHKHDIITLLGVGGHWVTTEENLQLDPPDSHCLFLKGATLAFLNDEVWNLSNVQQGKYLCILKDVMEKLSTGVFRPQLDEPIPLYEAKVSMEAVQKNQGRKKQVVQF
B3: Rab5 (Rab5a), GTPγS loaded (natural protein, human, UniProt P20339 1-215, looked up)
chain: MASRGATRPNGPNTGNKICQFKLVLLGESAVGKSSLVLRFVKGQFHEFQESTIGAAFLTQTVCLDDTTVKFEIWDTAGQERYHSLAPMYYRGAQAAIVVYDITNEESFARAKNWVKELQRQASPNIVIALSGNKADLANKRAVDFQEAQSYADDNSLLFMETSAKTSMNVNEIFMAIAKKLPKNEPQNPGANSARGRGVDLTEPTQPTRNQCCSN
B4: Fy-2 (Ppp1r21) (natural protein, human, UniProt Q6ZMI0 1-780, looked up)
chain: MASAELQGKYQKLAQEYSKLRAQNQVLKKGVVDEQANSAALKEQLKMKDQSLRKLQQEMDSLTFRNLQLAKRVELLQDELALSEPRGKKNKKSGESSSQLSQEQKSVFDEDLQKKIEENERLHIQFFEADEQHKHVEAELRSRLATLETEAAQHQAVVDGLTRKYMETIEKLQNDKAKLEVKSQTLEKEAKECRLRTEECQLQLKTLHEDLSGRLEESLSIINEKVPFNDTKYSQYNALNVPLHNRRHQLKMRDIAGQALAFVQDLVTALLNFHTYTEQRIQIFPVDSAIDTISPLNQKFSQYLHENASYVRPLEEGMLHLFESITEDTVTVLETTVKLKTFSEHLTSYICFLRKILPYQLKSLEEECESSLCTSALRARNLELSQDMKKMTAVFEKLQTYIALLALPSTEPDGLLRTNYSSVLTNVGAALHGFHDVMKDISKHYSQKAAIEHELPTATQKLITTNDCILSSVVALTNGAGKIASFFSNNLDYFIASLSYGPKAASGFISPLSAECMLQYKKKAAAYMKSLRKPLLESVPYEEALANRRILLSSTESREGLAQQVQQSLEKISKLEQEKEHWMLEAQLAKIKLEKENQRIADKLKNTGSAQLVGLAQENAAVSNTAGQDEATAKAVLEPIQSTSLIGTLTRTSDSEVPDVESREDLIKNHYMARIVELTSQLQLADSKSVHFYAECRALSKRLALAEKSKEALTEEMKLASQNISRLQDELTTTKRSYEDQLSMMSDHLCSMNETLSKQREEIDTLKMSSKGNSKKNKSR
B5: Fy-3 (C12orf4) (natural protein, human, UniProt Q9NQ89 1-552, looked up)
chain: MKKNRERFCNREREFVYKFKVGSQCLELRVPLKFPVQENASHLHGRLMLLHSLPCFIEKDLKEALTQFIEEESLSDYDRDAEASLAAVKSGEVDLHQLASTWAKAYAETTLEHARPEEPSWDEDFADVYHDLIHSPASETLLNLEHNYFVSISELIGERDVELKKLRERQGIEMEKVMQELGKSLTDQDVNSLAAQHFESQQDLENKWSNELKQSTAIQKQEYQEWVIKLHQDLKNPNNSSLSEEIKVQPSQFRESVEAIGRIYEEQRKLEESFTIHLGAQLKTMHNLRLLRADMLDFCKHKRNHRSGVKLHRLQTALSLYSTSLCGLVLLVDNRINSYSGIKRDFATVCQECTDFHFPRIEEQLEVVQQVVLYARTQRRSKLKESLDSGNQNGGNDDKTKNAERNYLNVLPGEFYITRHSNLSEIHVAFHLCVDDHVKSGNITARDPAIMGLRNILKVCCTHDITTISIPLLLVHDMSEEMTIPWCLRRAELVFKCVKGFMMEMASWDGGISRTVQFLVPQSISEEMFYQLSNMLPQIFRVSSTLTLTSKH

Data set [1] concerns the molecule itself. The data set is described as follows: cryo-EM structure.
In data set [2] the target is B4. Put plainly: cryo-EM structure.
Data set [3] has as its target B4. Put plainly: HDX-MS.
Data set [4] deals with T1, Fy-1 (Tbck). Put plainly: HDX-MS.

In general, stoichiometry N refers to a count of units in the complex or per binding partner. Consider B1, for which the “stoichiometry N” value in data set [1] stood at 2. Regarding B2, in data set [2], the binding result is “binds”. Besides, in data set [1], the “stoichiometry N” value was 2.

Take B3: the binding result in data set [3] is given as “binds”. As for B4, the “stoichiometry N” value in data set [1] was determined as 2. In addition, the binding result in data set [4] is listed as “binds”. In the case of B5, in data set [3], the binding result was “binds”.

For the origin of these results see paper doi:10.1101/2021.06.21.449265 (bioRxiv, 2021).
